Reference: PMC10771525 (Communications Biology, 2024)
Like-named read-outs stand apart in the source and are kept apart here. One block for each molecule: values may come before it. Where a SMILES comes first, the peptide text is derived from it. [ ]: non-standard residue; d: D form.

Tests used:
PTGIR = PTGIR (Homo sapiens, UniProt P43119); assay: GPCR panel (control), Arrestin, CHO-K1; format: cell-based; settings: reference agonist
MTNR1A = assay: GPCR panel (control), Arrestin, CHO-K1; format: cell-based, human; settings: reference agonist
MTNR1B = assay: GPCR panel (control), Arrestin, CHO-K1; format: cell-based, human; settings: reference agonist
P2RY12 = assay: GPCR panel (control), Arrestin, CHO-K1; format: cell-based, human; settings: reference agonist
P2RY11 = assay: GPCR panel (control), Arrestin, CHO-K1; format: cell-based, human; settings: reference agonist
OPRD1 = target: T1, OPRD1 (Homo sapiens, UniProt P41143); assay: GPCR panel (control), Arrestin, CHO-K1; format: cell-based; settings: reference agonist
T1 construct: expressed in transfected cells; host or cells: CHO-K1

TBXA2R = assay: GPCR panel (control), Arrestin, U2OS; format: cell-based, human; settings: reference agonist
KISS1R = target: T2, KISS1R (Homo sapiens, UniProt Q969F8); assay: GPCR panel (control), Arrestin, U2OS; format: cell-based
T2 construct: expressed in transfected cells; host or cells: U2OS

PTAFR = assay: GPCR panel (control), Arrestin, CHO-K1; format: cell-based, human; settings: reference agonist
P2RY4 = assay: GPCR panel (control), Arrestin, CHO-K1; format: cell-based, human; settings: reference agonist
P2RY2 = assay: GPCR panel (control), Arrestin, U2OS; format: cell-based, human; settings: reference agonist
P2RY6 = assay: GPCR panel (control), Arrestin, CHO-K1; format: cell-based, human; settings: reference agonist
CCR1 = assay: GPCR panel (control), Arrestin, CHO; format: cell-based, human; settings: reference agonist
MRGPRX2 = target: T3, MRGPRX2 (Homo sapiens, UniProt Q96LB1); assay: calcium mobilization assay, CHEM-1 cells recombinantly expressing MRGPRX2; format: cell-based; design: host or cells: CHEM-1 adherent rat hematopoietic cells; settings: for MRGPRX2 activation, Readout 1 / MRGPRX2 activation, Readout 2: Fig. 3b, fragment 1 µM, normalized to 1 µM CXCL14 (100%); for MRGPRX2 activation (in words): large CXCL14 fragments, CHEM1 cells overexpressing MRGPRX2; for EC50: Fluo-8, FLIPR, read-out: EC50, calcium mobilization assays; for pEC50: Fig. 3d
T3 sequence (Q96LB1 1-330): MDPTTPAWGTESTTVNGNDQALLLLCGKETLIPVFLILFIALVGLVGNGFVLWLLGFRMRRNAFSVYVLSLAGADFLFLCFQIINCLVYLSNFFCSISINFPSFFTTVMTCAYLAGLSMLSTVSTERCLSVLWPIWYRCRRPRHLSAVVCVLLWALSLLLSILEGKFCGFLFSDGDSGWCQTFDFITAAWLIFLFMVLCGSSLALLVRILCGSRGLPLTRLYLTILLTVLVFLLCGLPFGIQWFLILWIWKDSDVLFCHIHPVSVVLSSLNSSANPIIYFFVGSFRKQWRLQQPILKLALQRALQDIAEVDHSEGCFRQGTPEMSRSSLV
Description: To confirm the initial results obtained in the β-arrestin recruitment assays, we established calcium mobilization assays in two different recombinant cell lines, CHEM-1 and LN229 cells, respectively. CHEM-1 cells are adherent rat hematopoietic cells with a high endogenous expression level of the promiscuous Gα15 protein enabling the measuring of calcium signaling of a large variety of GPCRs. […]. Subsequently, we employed recombinant human glioblastoma LN229 cells, a human cell line derived from glioblastoma multiforme tumors. […].
The cell lines CHEM1 and CHEM1-MRGPRX2 are adherent rat cell lines (HTSCHEM-1RTA, HTS058RTA, Merck-Millipore, Darmstadt, Germany); which were cultured under standard cell culture conditions.
A cell-based fluorometric assay was employed for the determination of intracellular calcium release using Fluo-8. Cells were seeded into microtiter plates and incubated under standard cell culture conditions. After 24 h the medium was removed, and the cells were washed with phosphate-buffered saline (PBS). The cells were incubated with loading buffer (40 ml PBS with 2 mM Ca^2+, 800 µl of brilliant black solution (2%), 732 µl of probenecid solution (0.5 M) in 1 N NaOH, 400 µL of pluronic (10%) in water, and 152 µl of Fluo-8 (5.7 ng/ml in water)) for 30 min. For fluorescence readout and compound testing a FLIPR tetra system was used according to the manufacture’s protocol (Molecular Devices, CA 94089- 1136, USA).

[1] = target: MRGPRX2 in CHEM-1 cells (human) (UniProt Q96LB1)
[2] = target: MRGPRX2 in the calcium mobilization assays of the small CXCL14 fragments and mutants (human) (UniProt Q96LB1)
[3] = target: T4, mouse MRGPRB2 in 1321N1 astrocytoma cells (mouse) (UniProt Q3KNA1)
T4 sequence: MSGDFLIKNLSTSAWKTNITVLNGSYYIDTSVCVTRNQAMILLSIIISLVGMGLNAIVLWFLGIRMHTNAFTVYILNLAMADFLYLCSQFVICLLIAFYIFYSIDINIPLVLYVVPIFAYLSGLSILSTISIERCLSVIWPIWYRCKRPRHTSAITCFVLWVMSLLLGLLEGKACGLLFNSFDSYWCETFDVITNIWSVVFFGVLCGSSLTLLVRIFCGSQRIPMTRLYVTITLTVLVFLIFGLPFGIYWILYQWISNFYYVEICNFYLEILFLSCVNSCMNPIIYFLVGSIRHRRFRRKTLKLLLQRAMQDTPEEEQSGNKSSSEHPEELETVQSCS

PROKR2 = assay: GPCR panel (control), Arrestin, CHO-K1; format: cell-based, human; settings: reference agonist
PROKR1 = assay: GPCR panel (control), Arrestin, CHO-K1; format: cell-based, human; settings: reference agonist
[4] = target: MRGPRX2 fused to ProLink (PK), in CHO β-arrestin cells (human) (UniProt Q96LB1)
[5] = target: MRGPRX2 in the calcium mobilization assays of the small CXCL14 fragments and mutants (human) (UniProt Q96LB1); remark: listed apart in the source
[6] = CHEM-1 cells recombinantly expressing MRGPRX2

PTGIR, sequence (P43119 1-383): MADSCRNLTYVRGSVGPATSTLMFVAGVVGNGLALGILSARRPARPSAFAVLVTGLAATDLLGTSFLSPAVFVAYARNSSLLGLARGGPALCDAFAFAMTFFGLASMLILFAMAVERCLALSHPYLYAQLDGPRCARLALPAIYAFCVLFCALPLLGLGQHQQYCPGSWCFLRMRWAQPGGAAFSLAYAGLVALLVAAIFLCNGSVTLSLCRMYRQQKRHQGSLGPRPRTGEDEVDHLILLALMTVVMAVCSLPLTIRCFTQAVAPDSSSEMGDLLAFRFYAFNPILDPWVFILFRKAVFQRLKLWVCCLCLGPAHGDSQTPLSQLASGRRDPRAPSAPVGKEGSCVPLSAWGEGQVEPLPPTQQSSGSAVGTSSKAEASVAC
T1 sequence (P41143 whole entry): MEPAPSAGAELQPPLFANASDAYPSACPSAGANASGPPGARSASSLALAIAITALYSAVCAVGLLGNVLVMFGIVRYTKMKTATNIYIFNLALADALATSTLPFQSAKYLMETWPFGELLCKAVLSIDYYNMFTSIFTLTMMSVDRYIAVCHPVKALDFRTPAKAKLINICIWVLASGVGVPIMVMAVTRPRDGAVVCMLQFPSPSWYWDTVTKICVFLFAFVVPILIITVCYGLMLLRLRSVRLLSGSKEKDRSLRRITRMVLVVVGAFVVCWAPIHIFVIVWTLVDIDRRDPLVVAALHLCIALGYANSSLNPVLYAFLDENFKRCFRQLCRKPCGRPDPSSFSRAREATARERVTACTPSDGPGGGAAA
T2 sequence (Q969F8 whole entry): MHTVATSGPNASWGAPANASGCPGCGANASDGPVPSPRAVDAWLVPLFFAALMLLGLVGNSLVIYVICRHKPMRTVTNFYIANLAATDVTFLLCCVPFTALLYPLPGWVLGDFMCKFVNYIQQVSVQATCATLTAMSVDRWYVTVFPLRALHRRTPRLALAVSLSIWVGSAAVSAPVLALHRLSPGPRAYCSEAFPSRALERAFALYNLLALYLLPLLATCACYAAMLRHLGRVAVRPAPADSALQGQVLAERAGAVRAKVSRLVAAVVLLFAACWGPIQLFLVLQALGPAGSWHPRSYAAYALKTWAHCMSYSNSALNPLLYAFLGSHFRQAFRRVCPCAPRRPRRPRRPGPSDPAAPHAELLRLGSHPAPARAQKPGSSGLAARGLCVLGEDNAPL

EC50 (PTGIR): 0.39 µM
EC80 (PTGIR): 18 µM
Molecule: CC#CCC(C)[C@H](O)/C=C/[C@@H]1[C@H]2c3cccc(CCCC(=O)O)c3O[C@H]2C[C@H]1O (mixture of isomers) [Beraprost]

Molecule: COc1ccc2[nH]c(I)c(CCNC(C)=O)c2c1 [2-Iodomelatonin]
EC50 (MTNR1A): 85 pM
EC80 (MTNR1A): 0.0051 µM
EC50 (MTNR1B): 84 pM
EC80 (MTNR1B): 0.0042 µM

EC50 (P2RY12): 0.0026 µM
Molecule: CSc1nc(N)c2ncn([C@@H]3O[C@H](COP(=O)(O)OP(=O)(O)O)[C@@H](O)[C@H]3O)c2n1 [2-methylthio-ADP]
EC80 (P2RY12): 0.058 µM

EC50 (P2RY11): 350 µM
Molecule: Nc1ncnc2c1ncn2[C@@H]1O[C@H](COP(=O)(O)OP(=O)(O)OP(=O)(O)O)[C@@H](O)[C@H]1O [ATP]
EC80 (P2RY11): 13000 µM

Molecule: CSCC[C@H](NC(=O)[C@H](CC(C)C)NC(=O)[C@H](Cc1cnc[nH]1)NC(=O)[C@H](Cc1ccccc1)NC(=O)[C@@H](CCSC)NC(=O)[C@@H](N)Cc1ccc(O)cc1)C(=O)N[C@@H](CC(=O)O)C(N)=O [Deltorphin A] (H-Y[dM]FHLMD-NH2)
EC50 (OPRD1): 0.0023 µM
EC80 (OPRD1): 0.054 µM

EC50 (TBXA2R): 0.12 µM
Molecule: O=C(O)CCC/C=C\C[C@@H]1[C@@H](/C=C/[C@@H](O)COc2ccc(I)cc2)[C@H]2CC[C@@H]1O2 [I-BOP]
EC80 (TBXA2R): 2.4 µM

Molecule: CC(C)C[C@H](NC(=O)CNC(=O)[C@H](Cc1ccccc1)NC(=O)[C@H](CO)NC(=O)[C@H](CC(N)=O)NC(=O)[C@H](Cc1c[nH]c2ccccc12)NC(=O)[C@H](CC(N)=O)NC(=O)[C@@H](N)Cc1ccc(O)cc1)C(=O)N[C@@H](CCCN=C(N)N)C(=O)N[C@@H](Cc1ccccc1)C(N)=O [Kisspeptin-10]
EC50 (KISS1R): 0.063 µM
EC80 (KISS1R; reference agonist, KISS1R, U2OS, Arrestin): 1.1 µM

Molecule: CCCCCCCCCCCCCCCCOC[C@H](COP(=O)([O-])OCC[N+](C)(C)C)OC(C)=O [PAF]
EC50 (PTAFR): 0.0063 µM
EC80 (PTAFR): 0.32 µM

EC50 (P2RY4): 0.11 µM
EC50 (P2RY2): 0.42 µM
EC50 (P2RY6): 0.1 µM
Molecule: O=c1ccn([C@@H]2O[C@H](COP(=O)(O)OP(=O)(O)OP(=O)(O)O)[C@@H](O)[C@H]2O)c(=O)[nH]1 [UTP]
EC80 (P2RY4): 3.3 µM
EC80 (P2RY2): 12 µM
EC80 (P2RY6): 2.7 µM

EC50 (CCR1): 0.0081 µM
Molecule: CCL3/MIP1a
EC80 (CCR1): 0.57 µM

MRGPRX2 activation, Readout 1 (MRGPRX2): 0.3%
MRGPRX2 activation, Readout 2 (MRGPRX2): 0.6%
MRGPRX2 activation (in words) (MRGPRX2): inactive
Molecule: CXCL14(1-44): large CXCL14 fragment, inactive (SKCKCSRKGPKIRYSDVKKLEMKPKYPHCEEKMVIITTKSVSRY)

EC50, calcium mobilization, CHEM1 cells overexpressing MRGPRX2 [1]: 0.68 µM
Emax, calcium mobilization, CHEM1 cells overexpressing MRGPRX2, normalized to the maximal effect of CXCL14 [1]: 164%
B1: CXCL14(39-77) (domain or fragment)
chain: KSVSRYRGQEHCLHPKLQSTKRFIKWYNAWNEKRRVYEE

MRGPRX2 activation, Readout 1 (MRGPRX2): 10%
MRGPRX2 activation, Readout 2 (MRGPRX2): 8%
MRGPRX2 activation (in words) (MRGPRX2): inactive
B2: CXCL14(1-56/64-77): largest inactive CXCL14 fragment, lacks STKRFIK (peptide)
chain: SKCKCSRKGPKIRYSDVKKLEMKPKYPHCEEKMVIITTKSVSRYRGQEHCLHPKLQWYNAWNEKRRVYEE

EC50, calcium mobilization at MRGPRX2 [2]: 0.316 µM
Emax, calcium mobilization at MRGPRX2 [2]: 155%
EC50, calcium mobilization, 1321N1 astrocytoma cells expressing MRGPRB2 [3]: 1.26 µM
Emax, calcium mobilization, 1321N1 astrocytoma cells expressing MRGPRB2 [3]: 127%
B3: CXCL14(59-65) (peptide)
peptide: KRFIKWY

improvement of potency compared to CXCL14 (MRGPRX2; [6]): 3 fold
EC50 (MRGPRX2; [6]): 0.379 µM
Emax, calcium mobilization assays (MRGPRX2; CHEM-1 cells recombinantly expressing MRGPRX2, normalized to the maximal effect of CXCL14): 205%
MRGPRX2 activation, Readout 1 (MRGPRX2): 203%
MRGPRX2 activation, Readout 2 (MRGPRX2): 208%
pEC50 (MRGPRX2; replicate column 1): 6.419
pEC50 (MRGPRX2; replicate column 2): 6.454
EC50, calcium mobilization, CHEM1 cells overexpressing MRGPRX2 [1]: 0.379 µM
Emax, calcium mobilization, CHEM1 cells overexpressing MRGPRX2, normalized to the maximal effect of CXCL14 [1]: 205%
B4: CXCL14(1-11/18-77) (domain or fragment)
chain: SKCKCSRKGPKKKLEMKPKYPHCEEKMVIITTKSVSRYRGQEHCLHPKLQSTKRFIKWYNAWNEKRRVYEE

EC50 (PROKR2): 0.0051 µM
EC50 (PROKR1): 0.049 µM
B5: EG VEGF (protein, UniProt P58294 20-105, looked up)
Prokineticin-1: AVITGACERDVQCGAGTCCAISLWLRGLRMCTPLGREGEECHPGSHKVPFFRKRKHHTCPCLPNLLCSRFPDGRYRCSMDLKNINF
EC80 (PROKR2): 0.41 µM
EC80 (PROKR1): 2.4 µM

MRGPRX2 activation, Readout 1 (MRGPRX2): 36%
MRGPRX2 activation, Readout 2 (MRGPRX2): 38%
MRGPRX2 activation (in words) (MRGPRX2): inactive
B6: CXCL14(1-63): large CXCL14 fragment, inactive (peptide)
chain: SKCKCSRKGPKIRYSDVKKLEMKPKYPHCEEKMVIITTKSVSRYRGQEHCLHPKLQSTKRFIK

EC50, calcium mobilization at MRGPRX2 [2]: 2.15 µM
Emax, calcium mobilization at MRGPRX2 [2]: 130%
EC50, calcium mobilization, 1321N1 astrocytoma cells expressing MRGPRB2 [3]: 2.32 µM
Emax, calcium mobilization, 1321N1 astrocytoma cells expressing MRGPRB2 [3]: 117%
B7: CXCL14(60-65) (peptide)
peptide: RFIKWY

EC50 (MRGPRX2; [6]): 0.751 µM
pEC50 (MRGPRX2; replicate column 1): 6.175
pEC50 (MRGPRX2; replicate column 2): 6.411
EC50, calcium mobilization, CHEM1 cells overexpressing MRGPRX2 [1]: 0.751 µM
B8: CXCL14(15-77) (domain or fragment)
chain: SDVKKLEMKPKYPHCEEKMVIITTKSVSRYRGQEHCLHPKLQSTKRFIKWYNAWNEKRRVYEE

EC50, β-arrestin recruitment at MRGPRX2 [4]: 50.4 µM
Emax, β-arrestin recruitment at MRGPRX2, normalized to the maximal effect of CXCL14 [4]: 53%
EC50, calcium mobilization at MRGPRX2 [5]: > 10 µM
B9: CXCL14(57-63) (peptide)
peptide: STKRFIK

EC50, calcium mobilization, CHEM1 cells overexpressing MRGPRX2 [1]: 0.678 µM
Emax, calcium mobilization, CHEM1 cells overexpressing MRGPRX2, normalized to the maximal effect of CXCL14 [1]: 175%
B10: CXCL14(1-32/56-77) (domain or fragment)
chain: SKCKCSRKGPKIRYSDVKKLEMKPKYPHCEEKQSTKRFIKWYNAWNEKRRVYEE
